This is an account of results in the supplement of paper PMC10567573.

To fix the notation:
B1: TRIM55 (parent)
chain: ICPICLEMFTKPVVILPCQHNLCR
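Note: lentivirally expressed fusions sorted by FACS into six bins by GFP to DsRed ratio, PSI derived from sequencing read proportions per bin multiplied by bin number.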

Variants of B1 are the subject of this series. Briefly: protein stability index of a GFP-peptide fusion (GPS, HEK-293T) (PSI 1-6); higher = more stable. The note with it: c terminus: a fixed tail appended.
Turning to ICPICLEMFAKPVVILPCQHNLCR [T10A], the protein stability index was determined as 2.23.
Then ICPICLEMFSKPVVILPCQHNLCR [T10S], with 2.74; and ICPICLEMFDKPVVILPCQHNLCR [T10D], with 2.48; and ICPICLEMFIKPVVILPCQHNLCR [T10I], with 1.83.
In the case of ICPICLEMFPKPVVILPCQHNLCR [T10P] it was 2.46; in that of ICPICLEMFWKPVVILPCQHNLCR [T10W], 2.27; in that of ICPICLEMFCKPVVILPCQHNLCR [T10C], 2.08.
ICPICLEMFFKPVVILPCQHNLCR [T10F]: the protein stability index worked out at 1.74.
Then ICPICLEMFGKPVVILPCQHNLCR [T10G], with 2.25; and ICPICLEMFVKPVVILPCQHNLCR [T10V], with 1.56.
Regarding ICPICLEMFLKPVVILPCQHNLCR [T10L], the protein stability index stood at 2.59.
In the case of ICPICLEMFKKPVVILPCQHNLCR [T10K] it was 2.34; in that of ICPICLEMFEKPVVILPCQHNLCR [T10E], 2.59; in that of ICPICLEMFNKPVVILPCQHNLCR [T10N], 2.73.
In the case of ICPICLEMFQKPVVILPCQHNLCR [T10Q] it was 3.09.
Then ICPICLEMFRKPVVILPCQHNLCR [T10R], with 2.38; and ICPICLEMFYKPVVILPCQHNLCR [T10Y], with 2.06; and ICPICLEMFHKPVVILPCQHNLCR [T10H], with 2.27.
Consider ICPICLEMFMKPVVILPCQHNLCR [T10M], for which the protein stability index stood at 2.3.
For ICPICEEMFTKPVVILPCQHNLCR [L6E], the protein stability index was 3.49.
Consider ICPICGEMFTKPVVILPCQHNLCR [L6G], for which the protein stability index was found to be 2.25.
ICPICMEMFTKPVVILPCQHNLCR [L6M]: the protein stability index was determined as 2.45.
As to ICPICQEMFTKPVVILPCQHNLCR [L6Q], the protein stability index was determined as 1.99.
With ICPICVEMFTKPVVILPCQHNLCR [L6V], the protein stability index amounted to 1.95.
As for ICPICREMFTKPVVILPCQHNLCR [L6R], the protein stability index came out at 2.22.
Then ICPICCEMFTKPVVILPCQHNLCR [L6C], with 2.39; and ICPICIEMFTKPVVILPCQHNLCR [L6I], with 2.32.
Then ICPICNEMFTKPVVILPCQHNLCR [L6N], with 2.94; and ICPICAEMFTKPVVILPCQHNLCR [L6A], with 2.03; and ICPICWEMFTKPVVILPCQHNLCR [L6W], with 2.77.
For ICPICDEMFTKPVVILPCQHNLCR [L6D], the protein stability index stood at 2.79.
On to ICPICTEMFTKPVVILPCQHNLCR [L6T], for which the protein stability index was 2.51.
With ICPICKEMFTKPVVILPCQHNLCR [L6K], the protein stability index came to 2.81.
As to ICPICSEMFTKPVVILPCQHNLCR [L6S], the protein stability index amounted to 2.52.
In the case of ICPICFEMFTKPVVILPCQHNLCR [L6F] it was 2.48.
In the case of ICPICHEMFTKPVVILPCQHNLCR [L6H] it was 2.38; in that of ICPICYEMFTKPVVILPCQHNLCR [L6Y], 2.34; in that of ICPICPEMFTKPVVILPCQHNLCR [L6P], 2.69.
ICPHCLEMFTKPVVILPCQHNLCR [I4H]: the protein stability index stood at 2.26.
Then ICPKCLEMFTKPVVILPCQHNLCR [I4K], with 2.74; and ICPTCLEMFTKPVVILPCQHNLCR [I4T], with 2.31.
On to ICPSCLEMFTKPVVILPCQHNLCR [I4S], for which the protein stability index stood at 2.72.
Then ICPLCLEMFTKPVVILPCQHNLCR [I4L], with 1.78; and ICPNCLEMFTKPVVILPCQHNLCR [I4N], with 2.25; and ICPPCLEMFTKPVVILPCQHNLCR [I4P], with 1.94.
On to ICPCCLEMFTKPVVILPCQHNLCR [I4C], for which the protein stability index was found to be 1.83.
In the case of ICPDCLEMFTKPVVILPCQHNLCR [I4D] it was 2.49; in that of ICPWCLEMFTKPVVILPCQHNLCR [I4W], 2.34.
With ICPECLEMFTKPVVILPCQHNLCR [I4E], the protein stability index came to 2.33.
Consider ICPRCLEMFTKPVVILPCQHNLCR [I4R], for which the protein stability index came to 2.87.
ICPACLEMFTKPVVILPCQHNLCR [I4A]: the protein stability index is 2.07.
Then ICPYCLEMFTKPVVILPCQHNLCR [I4Y], with 2.69; and ICPGCLEMFTKPVVILPCQHNLCR [I4G], with 2.03; and ICPMCLEMFTKPVVILPCQHNLCR [I4M], with 1.86.
Then ICPFCLEMFTKPVVILPCQHNLCR [I4F], with 2.67; and ICPVCLEMFTKPVVILPCQHNLCR [I4V], with 2.51; and ICPQCLEMFTKPVVILPCQHNLCR [I4Q], with 3.02.
Consider TCPICLEMFTKPVVILPCQHNLCR [I1T], for which the protein stability index amounted to 2.51.
In the case of HCPICLEMFTKPVVILPCQHNLCR [I1H], the protein stability index worked out at 2.62.
Then VCPICLEMFTKPVVILPCQHNLCR [I1V], with 2.4; and LCPICLEMFTKPVVILPCQHNLCR [I1L], with 2.72.
For KCPICLEMFTKPVVILPCQHNLCR [I1K], the protein stability index turned out to be 2.75.
In the case of RCPICLEMFTKPVVILPCQHNLCR [I1R] it was 2.75; in that of FCPICLEMFTKPVVILPCQHNLCR [I1F], 2.58; in that of YCPICLEMFTKPVVILPCQHNLCR [I1Y], 1.92.
On to ECPICLEMFTKPVVILPCQHNLCR [I1E], for which the protein stability index is 2.85.
As for WCPICLEMFTKPVVILPCQHNLCR [I1W], the protein stability index was determined as 2.59.
Then QCPICLEMFTKPVVILPCQHNLCR [I1Q], with 3.01; and SCPICLEMFTKPVVILPCQHNLCR [I1S], with 2.72.
In the case of DCPICLEMFTKPVVILPCQHNLCR [I1D] it was 2.75; in that of CCPICLEMFTKPVVILPCQHNLCR [I1C], 2.36.
PCPICLEMFTKPVVILPCQHNLCR [I1P]: the protein stability index was 2.19.
Take NCPICLEMFTKPVVILPCQHNLCR [I1N]: the protein stability index came out at 2.55.
Take MCPICLEMFTKPVVILPCQHNLCR [I1M]: the protein stability index was 2.44.
On to GCPICLEMFTKPVVILPCQHNLCR [I1G], for which the protein stability index is 2.46.
Then ICPICLLMFTKPVVILPCQHNLCR [E7L], with 2.47.
ICPICLCMFTKPVVILPCQHNLCR [E7C]: the protein stability index was found to be 1.92.
In the case of ICPICLMMFTKPVVILPCQHNLCR [E7M] it was 2.09; in that of ICPICLTMFTKPVVILPCQHNLCR [E7T], 1.85; in that of ICPICLFMFTKPVVILPCQHNLCR [E7F], 2.24.
Then ICPICLKMFTKPVVILPCQHNLCR [E7K], with 1.87; and ICPICLYMFTKPVVILPCQHNLCR [E7Y], with 2.07.
Take ICPICLQMFTKPVVILPCQHNLCR [E7Q]: the protein stability index was 2.42.
Then ICPICLIMFTKPVVILPCQHNLCR [E7I], with 1.94.
In the case of ICPICLNMFTKPVVILPCQHNLCR [E7N] it was 1.53; in that of ICPICLPMFTKPVVILPCQHNLCR [E7P], 2.13; in that of ICPICLGMFTKPVVILPCQHNLCR [E7G], 2.52.
ICPICLHMFTKPVVILPCQHNLCR [E7H]: the protein stability index was 2.29.
In the case of ICPICLDMFTKPVVILPCQHNLCR [E7D] it was 2.35; in that of ICPICLRMFTKPVVILPCQHNLCR [E7R], 2.24.
Then ICPICLAMFTKPVVILPCQHNLCR [E7A], with 2.3; and ICPICLSMFTKPVVILPCQHNLCR [E7S], with 2.19; and ICPICLVMFTKPVVILPCQHNLCR [E7V], with 1.42.
As for ICPICLWMFTKPVVILPCQHNLCR [E7W], the protein stability index was 1.89.
